{"source": "patent US20050148500A1", "about": "“Dopaminergic stimulatory factor” (priority 2001, published 2005)", "molecules": {"B1": {"name": "glial derived neurotrophic factor (protein, UniProt P39905 78-211, looked up)", "Glial cell line-derived …": "SPDKQMAVLPRRERNRQAAAANPENSRGKGRRGQRGKNRGCVLTAIHLNVTDLGLGYETKEELIFRYCSGSCDAAETTYDKILKNLSRNRRLVSDKVGQACCRPIAFDDDLSFLDDNLVYHILRKHSAKRCGCI"}, "B2": {"name": "ciliary neurotrophic factor (protein, UniProt P26441 1-200, looked up)", "Ciliary neurotrophic factor": "MAFTEHSPLTPHRRDLCSRSIWLARKIRSDLTALTESYVKHQGLNKNINLDSADGMPVASTDQWSELTEAERLQENLQAYRTFHVLLARLLEDQQVHFTPTEGDFHQAIHTLLLQVAAFAYQIEELMILLEYKIPRNEADGMPINVGDGGLFEKKLWGLKVLQELSQWTVRSIHDLRFISSHQTGIPARGSHYIANNKKM"}, "B3": {"name": "transforming growth factor β2 (protein, UniProt P61812 303-414, looked up)", "Transforming growth factor …": "ALDAAYCFRNVQDNCCLRPLYIDFKRDLGWKWIHEPKGYNANFCAGACPYLWSSDTQHSRVLSLYNTINPEASASPCCVSQDLEPLTILYYIGKTPKIEQLSNMIVKSCKCS"}}, "tested_on": "MN9D cells", "experiment": "Dopamine content of MN9D cells in monolayer culture after incubation with protein (HPLC)", "assay_type": "cell-based, mouse", "procedure": "[…] The MN9D cells on each plate were then collected in 10 ml of CMF, transferred to 15 ml centrifuge tubes and centrifuged at 1000×g for 5 min. The supernatant was removed and 600 μl of 0.5 N perchloric acid was added to the cell pellet which was then sonicated on ice for 10-15 s. The cell extract was centrifuged at 4000×g for 30 min and the supernatant stored at −80° C. for subsequent high pressure liquid chromatography (HPLC) analysis of MN9D cell dopamine content. The pellet was stored at −20° C. for subsequent protein analysis.\nA second experiment was then conducted to determine whether this effect was due to a change in the doubling time (24 h) of the MN9D cells with increased cell production or was the result of an increase in cellular dopamine. […] Cells were removed from the plates and cell numbers determined by counting in a hematocytometer. Dopamine content was determined by HPLC analysis. The MN9D cells can be differentiated by exposure to either sodium butyrate or dibutryl cyclic adenosine monophosphate for 5 days (Choi et al., 1991) resulting in a reduction in the rate of cell division and the production of extensive cellular processes.\nExperiment involved 24 hour incubation with X61 protein(s). X61 protein(s) was incubated with 100 microliter of concentrated monoclonal antibody against 14-3-3 (anti-14-3-3) obtained from Santa Cruz Biotechnology for 15 minutes at room temperature prior to addition to MN9D cells grown on 6-well plates. Data given as ng dopamine per well, n=3. The reason for the lower amounts of dopamine seen in this experiment as compared to that in Tables 2 and 3 is related to differences in time of exposure and plate size. X61 protein(s) were also preincubated with an antibody against neuronal nuclear protein as a control. This antibody had no effect on X61 protein(s) activity.\nAfter this period, the MN9D cells on each plate are collected in 10 ml of CMF, transferred to 15 ml centrifuge tubes and centrifuged at 1000×g for 5 min. The supernatant is removed and 600 μl of 0.5N perchloric acid is added to the cell pellet which is then sonicated on ice for 10-15 seconds. The material obtained is centrifuged at 4000×g for 30 minutes and the supernatant stored at −80° C. MN9D cell DA content is determined by reverse phase high pressure liquid chromatography with electrochemical detection (HPLC-ED) as previously described (Heller et al., 1993). The pellet is stored at −20° C. for subsequent protein analysis.", "note": "Entries after “also recorded” stand apart in the source; their conditions may differ.", "data": [{"molecule": "B1", "values": [{"measurement": "effect on MN9D dopamine levels versus controls", "setting": "1 ng/ml for 5 days", "result": "significantly lower; also recorded: significant decrease"}, {"measurement": "MN9D DA levels", "setting": "1 ng/ml for 5 days, control 467±18.4", "result": "356.0±14.4", "unit": "ng/plate"}]}, {"molecule": "B2", "values": [{"measurement": "effect on MN9D dopamine levels", "setting": "100 ng/ml, 24 hour treatment", "result": "no significant effect"}, {"measurement": "MN9D DA levels", "setting": "100 ng/ml, 24 hour treatment, controls 157.8±3.3", "result": "156.5±10.9", "unit": "ng/plate"}]}, {"molecule": "B3", "values": [{"measurement": "effect on MN9D DA levels", "result": "without effect"}]}]}
